Assay results reported in the supplement of paper PMC10567573.

B1: YPEL3 (parent)
chain: SKPKTFQAYLDDCHRRYSCAHCRA
B2: SNX3 (parent)
chain: FLRQLPFRGDDGIFDDNFIEERKQ

Variants of: B1
Assay: protein stability index of a GFP-peptide fusion (GPS, HEK-293T) (PSI 1-6); higher = more stable
Details: c terminus: a fixed tail appended
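Further: lentivirally expressed fusions sorted by FACS into six bins by GFP to DsRed ratio, PSI derived from sequencing read proportions per bin multiplied by bin number.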

Variant	protein stability index
SKPKTFQAYLDDCHGRYSCAHCRA [R15G]	1.88
SKPLTFQAYLDDCHRRYSCAHCRA [K4L]	2.42
SKPCTFQAYLDDCHRRYSCAHCRA [K4C]	1.86
SKPVTFQAYLDDCHRRYSCAHCRA [K4V]	2.57
SKPWTFQAYLDDCHRRYSCAHCRA [K4W]	1.59
SKPMTFQAYLDDCHRRYSCAHCRA [K4M]	2.28
SKPKTFQAYLDDCHRRYSCKHCRA [A20K]	2.95
SKPKTFQAYLDDCHRRYSCHHCRA [A20H]	2.04
SKPKTFQAYLDDCHRRYSCEHCRA [A20E]	1.46
SKPKTFQAYLDDCHRRYSCTHCRA [A20T]	2.29
SKPKTFQAYLDDCHRRYSCRHCRA [A20R]	1.72
SKPKTFQAYLDDCHRRYSCVHCRA [A20V]	2.02
SKPKTFQAYLDDCHRRYSCFHCRA [A20F]	2.22
SKPKTFQAYLDDCHRRYSCNHCRA [A20N]	2.92
SKPKTFQAYLDDCHRRYSCPHCRA [A20P]	1.92
SKPKTFQAYLDDCHRRYSCAHCRL [A24L]	1.87
SKPKTFQAYLDDCHRRYSCAHCRP [A24P]	2.24
SKPKTFQAYLDDCHRRYSCAHCRK [A24K]	3.42
SKPKTFQAYLDDCHRRYSCAHCRI [A24I]	2
SKPKTFQAYLDDCHRRYSCAHCRV [A24V]	1.84
SKPKTFQAYLDDCHRRYSCAHCRR [A24R]	1.71
SKPKTFQAYLDDCHRRYSCAHCRG [A24G]	2.32

Variant	protein stability index
SKPKTFQAYLDDCHRRYSCAHCRM [A24M]	2.07
HKPKTFQAYLDDCHRRYSCAHCRA [S1H]	2.07
DKPKTFQAYLDDCHRRYSCAHCRA [S1D]	2.21
NKPKTFQAYLDDCHRRYSCAHCRA [S1N]	2.04
MKPKTFQAYLDDCHRRYSCAHCRA [S1M]	2
IKPKTFQAYLDDCHRRYSCAHCRA [S1I]	2.81
SKPKTFQAYLDDCHRRYSCAHTRA [C22T]	2.73
SKPKTFQAYLDDCHRRYSCAHPRA [C22P]	2.61
SKPKTFQAYLDDCHRRYSCAHIRA [C22I]	2.69
SKPKTFQAYLDDCHRRYSCAHFRA [C22F]	2.32
SKPKTFQAYLDDCHRRYSCAHARA [C22A]	2.04
SKPKTFQAYLDDCHRRYSCAHKRA [C22K]	2.86
SKPKTFQAYLDDCHRRYSCAHQRA [C22Q]	3.22
SKPKTFQAYLDDCHRRYSCAHERA [C22E]	2.34
SKPKTFQAYLDDCHRRYSCAHSRA [C22S]	1.86
SKPKTFQAYLDDCHRRYSCAHHRA [C22H]	1.82
SKPKWFQAYLDDCHRRYSCAHCRA [T5W]	1.99
SKPKQFQAYLDDCHRRYSCAHCRA [T5Q]	2.55
SKPKKFQAYLDDCHRRYSCAHCRA [T5K]	2.25
SKPKSFQAYLDDCHRRYSCAHCRA [T5S]	1.77
SKPKMFQAYLDDCHRRYSCAHCRA [T5M]	2.56
SKPKEFQAYLDDCHRRYSCAHCRA [T5E]	3.37

Variant	protein stability index
SKPKRFQAYLDDCHRRYSCAHCRA [T5R]	2.85
SKPKTFQAYLDDCHRRYTCAHCRA [S18T]	2.37
SKPKTFQAYLDDCHRRYYCAHCRA [S18Y]	1.48
SKPKTFQAYLDDCHRRYICAHCRA [S18I]	2.37
SKPKTFQAYLDDCHRRYKCAHCRA [S18K]	2.01
SKPKTFQAYLDDCHRRYRCAHCRA [S18R]	2.56
SKPKTFQAYLDDCCRRYSCAHCRA [H14C]	2.28
SKPKTFQAYLDDCDRRYSCAHCRA [H14D]	1.67
SKPKTFQAYLDDCIRRYSCAHCRA [H14I]	2.05
SKPKTFQAYLDDCRRRYSCAHCRA [H14R]	1.73
SKPKTFQAYLDDCKRRYSCAHCRA [H14K]	2.78
SKPKTFQAYLDDCPRRYSCAHCRA [H14P]	2.05
SKPKTFQAYLDDCARRYSCAHCRA [H14A]	2.03
SKPKTFQAYLDDCHRRKSCAHCRA [Y17K]	3.43
SKPKTFQAYLDDCHRRHSCAHCRA [Y17H]	2.07
SKPKTFQAYLDDCHRRTSCAHCRA [Y17T]	2.37
SKPKTFQAYLDDCHRRCSCAHCRA [Y17C]	3.26
SKPKTFQAYLDDCHRRDSCAHCRA [Y17D]	2.44
SKPKTFQAYLDDCHRRASCAHCRA [Y17A]	1.99
SKPKTFQAYLDDCHRRMSCAHCRA [Y17M]	1.64

Variants of: B2
Assay: as above
Details: c terminus: a fixed tail appended

Variant	protein stability index
FLRQLPFRGDDGIFDDNFIEERWQ [K23W]	2.75
FLRQLPFRGDDGIFDDNFIEERVQ [K23V]	2.49
FLRQLPFRGDDGIFDDNFIEERYQ [K23Y]	2.99
FLRQLPFRGDDGIFDDNFIEERLQ [K23L]	2.49
FLRQLPFRGDDGIFDDNFIEERNQ [K23N]	3.92
FLRQLPFRGDDGIFDDNFIEERTQ [K23T]	3.52
FLRQLPFRGDDGIFDDNFIEERSQ [K23S]	3.16
FLRQLPFRGDDGIFDDNFIEERMQ [K23M]	3.26
FLRQLPFRGDDGIFDDNFIEERRQ [K23R]	2.95
FLRQLPFRGDDGIFDDNFIEERPQ [K23P]	3.36
FLRQLPFRGDDGIFDDNFIEERQQ [K23Q]	3.21
FLRQLPFRGDDGIFDDNFIEERKF [Q24F]	2.96
FLRQLPFRGDDGIFDDNFIEERKG [Q24G]	3.29
FLRQLPFRGDDGIFDDNFIEERKM [Q24M]	2.56
FLRQLPFRGDDGIFDDNFIEERKS [Q24S]	2.75
FLRQLPFRGDDGIFDDNFIEERKL [Q24L]	2.79
FLRQLPFRGDDGIFDDNFIEERKN [Q24N]	4.03
FLRQLPFRGDDGIFDDNFIEERKH [Q24H]	2.91
FLRQLPFRGDDGIFDDNFIEERKY [Q24Y]	2.93
FLRQLPFRGDDGIFDDNFIEERKK [Q24K]	4.36
FLRQLPFRGDDGIFDDNFIEERKV [Q24V]	2.61
FLRQLPFRGDDGIFDDNFIEERKE [Q24E]	3.44
FLRQLPFRGDDGIFDDNFIEERKW [Q24W]	2.1
FLRQLPFRGDDGIFDDNFIEERKD [Q24D]	3.62
FLRQLPFRGDDGIFDDNFIEERKT [Q24T]	2.84
FLRQLPFRGDDGIFDDNFIEERKP [Q24P]	2.6
FLRQLPFRGDDGIFDDNFIEERKR [Q24R]	3.48
FLRQLPFRGDDGIFDDNFIEERKA [Q24A]	3.3
FLRQLPFRGDDGIFDDNFIEERKC [Q24C]	2.57
FLRQLPFRGDDGIFDDNFIEERKI [Q24I]	3.02
